Ends that are not written are not given here.
T1: mouse RXFP1 receptor (mouse, UniProt Q6R6I7 1-758)
T1 sequence (looked up): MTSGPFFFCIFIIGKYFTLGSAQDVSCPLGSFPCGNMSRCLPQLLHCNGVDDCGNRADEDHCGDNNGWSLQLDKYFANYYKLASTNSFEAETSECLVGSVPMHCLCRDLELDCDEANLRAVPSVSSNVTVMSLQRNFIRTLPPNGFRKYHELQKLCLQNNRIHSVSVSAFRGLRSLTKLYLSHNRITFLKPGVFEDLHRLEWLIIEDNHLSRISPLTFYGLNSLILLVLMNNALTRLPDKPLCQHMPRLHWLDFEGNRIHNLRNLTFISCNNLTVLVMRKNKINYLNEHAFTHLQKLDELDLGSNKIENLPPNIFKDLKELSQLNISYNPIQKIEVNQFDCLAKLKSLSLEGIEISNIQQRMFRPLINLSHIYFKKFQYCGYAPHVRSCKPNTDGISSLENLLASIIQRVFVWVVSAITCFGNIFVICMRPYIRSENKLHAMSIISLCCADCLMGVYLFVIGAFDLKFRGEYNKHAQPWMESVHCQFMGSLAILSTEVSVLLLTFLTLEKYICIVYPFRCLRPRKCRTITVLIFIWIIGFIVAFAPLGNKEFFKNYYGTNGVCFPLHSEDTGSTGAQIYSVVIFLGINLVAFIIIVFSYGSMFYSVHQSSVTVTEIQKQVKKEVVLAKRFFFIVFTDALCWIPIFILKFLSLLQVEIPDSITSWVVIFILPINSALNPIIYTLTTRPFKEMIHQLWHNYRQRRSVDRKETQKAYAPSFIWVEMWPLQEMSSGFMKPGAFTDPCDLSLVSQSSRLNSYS

T2: human RXFP1 receptor (human, UniProt Q9HBX9 1-757)
T2 sequence (looked up): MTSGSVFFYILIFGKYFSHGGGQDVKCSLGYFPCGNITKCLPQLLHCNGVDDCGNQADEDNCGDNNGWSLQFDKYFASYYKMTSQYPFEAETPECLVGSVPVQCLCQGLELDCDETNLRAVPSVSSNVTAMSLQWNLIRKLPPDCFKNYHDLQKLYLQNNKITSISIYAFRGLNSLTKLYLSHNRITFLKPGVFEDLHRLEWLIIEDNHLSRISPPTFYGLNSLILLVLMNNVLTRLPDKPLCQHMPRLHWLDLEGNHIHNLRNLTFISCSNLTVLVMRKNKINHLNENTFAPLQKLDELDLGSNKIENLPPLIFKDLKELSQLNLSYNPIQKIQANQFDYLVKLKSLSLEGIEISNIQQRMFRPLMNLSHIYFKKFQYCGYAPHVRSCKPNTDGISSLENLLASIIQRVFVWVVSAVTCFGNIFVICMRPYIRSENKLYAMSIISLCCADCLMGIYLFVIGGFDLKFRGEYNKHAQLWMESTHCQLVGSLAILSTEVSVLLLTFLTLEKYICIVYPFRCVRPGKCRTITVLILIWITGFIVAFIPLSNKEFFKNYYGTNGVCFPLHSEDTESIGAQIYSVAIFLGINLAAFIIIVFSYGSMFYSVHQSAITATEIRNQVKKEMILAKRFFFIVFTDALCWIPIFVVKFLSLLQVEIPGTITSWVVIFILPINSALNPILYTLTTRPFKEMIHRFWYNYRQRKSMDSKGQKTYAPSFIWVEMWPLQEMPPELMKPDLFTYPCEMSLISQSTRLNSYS


Tests used:
Assay in all cases: cell-based or functional assay
[1] = biological target: human RXFP2 (human, UniProt Q8WXD0 1-754)
[2] = biological target: T1, mouse RXFP1 receptor
[3] = biological target: T2, human RXFP1 receptor
[4] = biological target: T2, human RXFP1 receptor; remark: listed apart in the source

human RXFP2, sequence (Q8WXD0 whole entry): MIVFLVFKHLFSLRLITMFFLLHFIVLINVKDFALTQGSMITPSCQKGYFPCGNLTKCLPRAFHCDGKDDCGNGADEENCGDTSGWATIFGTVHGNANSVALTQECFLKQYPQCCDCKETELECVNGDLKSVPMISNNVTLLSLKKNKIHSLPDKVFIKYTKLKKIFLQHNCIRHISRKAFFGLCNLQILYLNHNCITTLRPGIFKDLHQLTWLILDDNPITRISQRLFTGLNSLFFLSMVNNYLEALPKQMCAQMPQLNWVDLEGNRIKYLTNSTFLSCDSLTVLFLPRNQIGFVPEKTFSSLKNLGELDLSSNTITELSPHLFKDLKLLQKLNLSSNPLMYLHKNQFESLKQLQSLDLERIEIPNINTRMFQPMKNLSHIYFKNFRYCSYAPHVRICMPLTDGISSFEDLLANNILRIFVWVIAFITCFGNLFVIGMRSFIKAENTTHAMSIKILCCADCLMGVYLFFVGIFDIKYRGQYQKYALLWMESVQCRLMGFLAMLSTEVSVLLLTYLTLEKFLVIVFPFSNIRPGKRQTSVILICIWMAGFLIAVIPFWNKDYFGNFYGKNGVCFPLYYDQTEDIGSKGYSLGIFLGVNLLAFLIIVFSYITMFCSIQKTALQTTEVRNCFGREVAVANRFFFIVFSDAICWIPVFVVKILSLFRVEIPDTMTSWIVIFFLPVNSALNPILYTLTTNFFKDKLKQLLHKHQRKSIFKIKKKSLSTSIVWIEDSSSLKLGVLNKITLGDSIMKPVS

Binder | hRXFP2 EC50 (M), cAMP HTRF assay in CHO-K1 RXFP2 Gs cells [1] [M] | mRXFP1 EC50 (M), cAMP HTRF assay in CHO-K1 mRXFP1 Gs cells [2] [M] | hRXFP1 EC50 (M), cAMP HTRF assay in CHO-K1 RXFP1 Gs cells [3] [M] | EC50 (M), stimulation of cAMP production (HitHunter cAMP assay) in CHO-K1 RXFP1 Gs cells [4] [M]
Fc-TMΔTHTΔK_hRLX2_21-15AA (Fc fusion) GGGSACPPCPAPEFEGGPSVFLFPPKPKDTLMISRTPEVTCVVVDVSHEDPEVKFNWYVDGVEVHNAKTKPREEQYNSTYRVVSVLTVLHQDWLNGKEYKCKVSNKALPASIEKTISKAKGQPREPQVYTLPPSREEMTKNQVSLTCLVKGFYPSDIAVEWESNGQPENNYKTTPPVLDSDGSFFLYSKLTVDKSRWQQGNVFSCSVMHEALHNHYTQKSLSLSPGGGGGSGGGGSGGGGSGGGGGSQLYSALANKCCHVGCTKRSLARFCGGGGSGGGGSGGGGSSWMEEVIKLCGRELVRAQIAICGMSTWS | > 6.78e-06 | 2.52e-09 | 2.6e-09 | 
hRLX2-Fc-TMΔTHTΔK_15-24AA (Fc fusion) QLYSALANKCCHVGCTKRSLARFCGGGGSGGGGSGGGGSSWMEEVIKLCGRELVRAQIAICGMSTWSAAAGGGGSGGGGSGGGGSGGGGSACPPCPAPEFEGGPSVFLFPPKPKDTLMISRTPEVTCVVVDVSHEDPEVKFNWYVDGVEVHNAKTKPREEQYNSTYRVVSVLTVLHQDWLNGKEYKCKVSNKALPASIEKTISKAKGQPREPQVYTLPPSREEMTKNQVSLTCLVKGFYPSDIAVEWESNGQPENNYKTTPPVLDSDGSFFLYSKLTVDKSRWQQGNVFSCSVMHEALHNHYTQKSLSLSPG | > 3.09e-07 | 2.23e-09 | 4.97e-09 | 
recombinant human Relaxin-2 (R&D Systems, catalogue number 6586-RN-025) (ligand, not fully specified (bridges); ends and bridges not checked; also: two interchain and one intrachain disulfide bonds, positions not given here) chain 1: QLYSALANKCCHVGCTKRSLARFC chain 2: DSWMEEVIKLCGRELVRAQIAICGMSTWS | 1.46e-07 | 6.68e-11 | 1.38e-10 | 1.06e-10
Fc-YTE-TM_hRLX2_15-15AA (Fc fusion) DKTHTCPPCPAPEFEGGPSVFLFPPKPKDTLYITREPEVTCVVVDVSHEDPEVKFNWYVDGVEVHNAKTKPREEQYNSTYRVVSVLTVLHQDWLNGKEYKCKVSNKALPASIEKTISKAKGQPREPQVYTLPPSRDELTKNQVSLTCLVKGFYPSDIAVEWESNGQPENNYKTTPPVLDSDGSFFLYSKLTVDKSRWQQGNVFSCSVMHEALHNHYTQKSLSLSPGKGGGGSGGGGSGGGGSQLYSALANKCCHVGCTKRSLARFCGGGGSGGGGSGGGGSSWMEEVIKLCGRELVRAQIAICGMSTWS |  |  |  | 5.39e-09
Fc-YTE-FQQ_hRLX2_15-15AA (Fc fusion) DKTHTCPPCPAPEFQGGPSVFLFPPKPKDTLYITREPEVTCVVVDVSHEDPEVKFNWYVDGVEVHNAKTKPREEQYNSTYRVVSVLTVLHQDWLNGKEYKCQVSNKALPAPIEKTISKAKGQPREPQVYTLPPSRDELTKNQVSLTCLVKGFYPSDIAVEWESNGQPENNYKTTPPVLDSDGSFFLYSKLTVDKSRWQQGNVFSCSVMHEALHNHYTQKSLSLSPGKGGGGSGGGGSGGGGSQLYSALANKCCHVGCTKRSLARFCGGGGSGGGGSGGGGSSWMEEVIKLCGRELVRAQIAICGMSTWS |  |  |  | 4.56e-09
Fc-TMΔTHTΔK_hRLX2(BA)_21-15AA (Fc fusion) GGGSACPPCPAPEFEGGPSVFLFPPKPKDTLMISRTPEVTCVVVDVSHEDPEVKFNWYVDGVEVHNAKTKPREEQYNSTYRVVSVLTVLHQDWLNGKEYKCKVSNKALPASIEKTISKAKGQPREPQVYTLPPSREEMTKNQVSLTCLVKGFYPSDIAVEWESNGQPENNYKTTPPVLDSDGSFFLYSKLTVDKSRWQQGNVFSCSVMHEALHNHYTQKSLSLSPGGGGGSGGGGSGGGGSGGGGGSSWMEEVIKLCGRELVRAQIAICGMSTWSGGGGSGGGGSGGGGSQLYSALANKCCHVGCTKRSLARFC | > 8.22e-06 | 8.82e-09 | 1.56e-08 | 
hRLX2(BA)-Fc-TMΔTHTΔK_15-24AA (Fc fusion) SWMEEVIKLCGRELVRAQIAICGMSTWSGGGGSGGGGSGGGGSQLYSALANKCCHVGCTKRSLARFCAAAGGGGSGGGGSGGGGSGGGGSACPPCPAPEFEGGPSVFLFPPKPKDTLMISRTPEVTCVVVDVSHEDPEVKFNWYVDGVEVHNAKTKPREEQYNSTYRVVSVLTVLHQDWLNGKEYKCKVSNKALPASIEKTISKAKGQPREPQVYTLPPSREEMTKNQVSLTCLVKGFYPSDIAVEWESNGQPENNYKTTPPVLDSDGSFFLYSKLTVDKSRWQQGNVFSCSVMHEALHNHYTQKSLCLSPG | > 4.33e-06 | 8.78e-10 | 1.13e-09 | 

Reference: patent US20220073584A1 (AstraZeneca / MedImmune, published 2022)
